Experimental data published in the Immune Epitope Database (IEDB).

Assays:
Assay in all cases: IEDB peptide-MHC binding, purified MHC/competitive/radioactivity; filed as Kd, often an IC50 or EC50 that approximates it; ≥ and ≤ were set here for values at or beyond the usual limits of such assays
HLA-A*02:03 = biological target: HLA-A*02:03
HLA-A*33:01 = biological target: HLA-A*33:01
HLA-A*68:01 = biological target: HLA-A*68:01
HLA-A*11:01 = biological target: HLA-A*11:01
HLA-A*31:01 = biological target: HLA-A*31:01
HLA-A*03:01 = biological target: HLA-A*03:01
HLA-A*02:06 = biological target: HLA-A*02:06
[1] = source organism: Vaccinia virus WR
[2] = source organism: Vaccinia virus Copenhagen
[3] = source organism: SARS coronavirus Tor2
[4] = source organism: Lassa virus Josiah
[5] = source organism: Lymphocytic choriomeningitis virus (strain Armstrong)
[6] = source organism: Dengue virus 1 Brazil/97-11/1997
[7] = source organism: Dengue virus 4 Dominica/814669/1981

Sequence | Kd (HLA-A*33:01; [1]) [µM] | Kd (HLA-A*68:01; [1]) [µM] | Kd (HLA-A*11:01; [1]) [µM] | Kd (HLA-A*31:01; [1]) [µM] | Kd (HLA-A*03:01; [1]) [µM] | further results
KLRDSYTQV |  |  |  |  |  | Kd (HLA-A*02:03; source organism: Dengue virus 1 Nauru/West Pac/1974): 0.016 µM
MLYQLLEAVY | 15.7 | 3.35 | 13.7 | 10.8 | 1.46 | 
SVLDIISSK |  |  |  |  |  | Kd (HLA-A*33:01; [2]): 4.41 µM; Kd (HLA-A*68:01; [2]): 0.184 µM; Kd (HLA-A*11:01; [2]): 0.00672 µM; Kd (HLA-A*31:01; [2]): 1.67 µM; Kd (HLA-A*03:01; [2]): 0.0234 µM
IMLEGETKLY | ≥ 41.1 | 1.01 | 5.11 | ≥ 55.8 | 1.61 | 
MLTNAISSR | 0.237 | 0.0134 | 4.11 | 0.00957 | 0.0131 | 
NARGEDTQMR | 2.12 | 0.0162 | ≥ 69 | 1.77 | ≥ 41.4 | 
SLIDLQELGK |  |  |  |  |  | Kd (HLA-A*33:01; [3]): 1.4 µM; Kd (HLA-A*68:01; [3]): 0.0945 µM; Kd (HLA-A*11:01; [3]): 0.178 µM; Kd (HLA-A*31:01; [3]): 0.0759 µM; Kd (HLA-A*03:01; [3]): 0.183 µM
IVHSYLKNYK | 9.72 | 0.257 | 0.058 | 0.0275 | 0.0973 | 
DAHKKNLYDH |  |  |  |  |  | Kd (HLA-A*33:01; [4]): ≥ 70 µM; Kd (HLA-A*68:01; [4]): ≥ 70.1 µM; Kd (HLA-A*11:01; [4]): ≥ 69.7 µM; Kd (HLA-A*31:01; [4]): 3.43 µM; Kd (HLA-A*03:01; [4]): ≥ 70 µM
LFQLCTFTK |  |  |  |  |  | Kd (HLA-A*33:01; [3]): 0.875 µM; Kd (HLA-A*68:01; [3]): 0.579 µM; Kd (HLA-A*11:01; [3]): 0.191 µM; Kd (HLA-A*31:01; [3]): 0.574 µM; Kd (HLA-A*03:01; [3]): 0.438 µM
AQPLPQRQKK |  |  |  |  |  | Kd (HLA-A*33:01; [3]): ≥ 27.5 µM; Kd (HLA-A*68:01; [3]): ≥ 70.2 µM; Kd (HLA-A*11:01; [3]): 1.23 µM; Kd (HLA-A*31:01; [3]): ≥ 32.7 µM; Kd (HLA-A*03:01; [3]): ≥ 33.4 µM
FLIVSLCPTK | 15.1 | 0.977 | 0.0022 | ≥ 25.6 | 0.219 | 
NIAEYIAGLK | ≥ 25.2 | 0.0145 | 0.518 | ≥ 70 | 0.132 | 
FMSHVKSVTK | 0.0989 | 0.0316 | 0.00328 | 0.279 | 0.00773 | 
DVSMMSMYGK | 0.584 | 0.00121 | 0.00128 | 0.231 | 0.149 | 
AAYYFMKFRR |  |  |  |  |  | Kd (HLA-A*33:01; [3]): 0.277 µM; Kd (HLA-A*68:01; [3]): 0.0792 µM; Kd (HLA-A*11:01; [3]): 0.132 µM; Kd (HLA-A*31:01; [3]): 0.041 µM; Kd (HLA-A*03:01; [3]): 3.05 µM
SLNSMYTRLR | 0.000997 | 0.0812 | 1.78 | 0.000291 | 0.0472 | 
TVVIGTSKFY |  |  |  |  |  | Kd (HLA-A*33:01; [3]): 1.24 µM; Kd (HLA-A*68:01; [3]): 1.5 µM; Kd (HLA-A*11:01; [3]): 0.809 µM; Kd (HLA-A*31:01; [3]): 1.86 µM; Kd (HLA-A*03:01; [3]): 1.1 µM

Sequence | Kd (HLA-A*33:01; [1]) [µM] | Kd (HLA-A*68:01; [1]) [µM] | Kd (HLA-A*11:01; [1]) [µM] | Kd (HLA-A*31:01; [1]) [µM] | Kd (HLA-A*03:01; [1]) [µM] | further results
TQHGTILIKV |  |  |  |  |  | Kd (HLA-A*02:06; source organism: Dengue virus 3 Martinique/1243/1999): 0.526 µM
ASITPNNLNK | ≥ 29.8 | 0.00694 | 0.00111 | 0.0476 | 0.00129 | 
TAVAKCNVNH |  |  |  |  |  | Kd (HLA-A*33:01; [5]): ≥ 66.8 µM; Kd (HLA-A*68:01; [5]): ≥ 65.3 µM; Kd (HLA-A*11:01; [5]): ≥ 69.7 µM; Kd (HLA-A*31:01; [5]): ≥ 70 µM; Kd (HLA-A*03:01; [5]): ≥ 70 µM
SQNPLAELK |  |  |  |  |  | Kd (HLA-A*33:01; [3]): ≥ 48.1 µM; Kd (HLA-A*68:01; [3]): ≥ 63.1 µM; Kd (HLA-A*11:01; [3]): 0.306 µM; Kd (HLA-A*31:01; [3]): 3.7 µM; Kd (HLA-A*03:01; [3]): ≥ 22.7 µM
VSLSAYIIR | 4 | 3.31 | 1.11 | 0.0402 | 8.56 | 
LFKNLATSIY | ≥ 70 | 19.9 | ≥ 69.8 | ≥ 37.1 | ≥ 41.7 | 
FKMRPMFAV |  |  |  |  |  | Kd (HLA-A*02:06; [6]): 0.0555 µM
ILGGVLHTK | 6.16 | 0.558 | 0.0193 | 1.38 | 0.00192 | 
YVLGVFLRKL |  |  |  |  |  | Kd (HLA-A*02:06; [7]): 0.0815 µM
ELAAHQKKIL |  |  |  |  |  | Kd (HLA-A*02:03; source organism: Homo sapiens): 19 µM
TIRHMWSVVY | ≥ 70 | 2.86 | 3.08 | ≥ 57 | 0.294 | 
ILNAHKDGV |  |  |  |  |  | Kd (HLA-A*02:03; [7]): 0.329 µM
VMAFIAFLR |  |  |  |  |  | Kd (HLA-A*33:01; [6]): 0.00468 µM; Kd (HLA-A*68:01; [6]): 0.00451 µM; Kd (HLA-A*11:01; [6]): 0.171 µM; Kd (HLA-A*31:01; [6]): 0.00133 µM; Kd (HLA-A*03:01; [6]): 0.0385 µM
VINAPIKEFK | 0.0838 | 0.00675 | 0.00131 | 0.227 | 0.00487 | 
VTTIMFLAR |  |  |  |  |  | Kd (HLA-A*33:01; [3]): 0.167 µM; Kd (HLA-A*68:01; [3]): 0.0846 µM; Kd (HLA-A*11:01; [3]): 0.0246 µM; Kd (HLA-A*31:01; [3]): 0.0454 µM; Kd (HLA-A*03:01; [3]): 0.329 µM
TYLGPLSCK |  |  |  |  |  | Kd (HLA-A*33:01; [5]): 0.154 µM; Kd (HLA-A*68:01; [5]): 0.375 µM; Kd (HLA-A*11:01; [5]): 0.0213 µM; Kd (HLA-A*31:01; [5]): 1.69 µM; Kd (HLA-A*03:01; [5]): 0.165 µM
QTSVNTVVR | 7.26 | 0.0733 | 0.923 | 4.01 | ≥ 63.6 | 
